From patent US20110045003A1 (SYNOVEX, published 2011) come the findings set out here.

Usually EC50 stands for the concentration that produces a half-maximal response.

Where only a bound is given, the exact number is not on record here.

Test [1] addresses T1, recombinant Cad-11 EC1 human IgG1 fusion protein (R&D Systems Cat. No. 1790-CA-050) (human, UniProt P55287 54-617, limits assumed).
T1 construct: Bought protein; the catalogue product may hold more of the extracellular region; also called recombinant human Cad-11 EC1; recombinant human Cad-11 fusion protein; not shown: human IgG1 part of the bought fusion protein
T1 sequence: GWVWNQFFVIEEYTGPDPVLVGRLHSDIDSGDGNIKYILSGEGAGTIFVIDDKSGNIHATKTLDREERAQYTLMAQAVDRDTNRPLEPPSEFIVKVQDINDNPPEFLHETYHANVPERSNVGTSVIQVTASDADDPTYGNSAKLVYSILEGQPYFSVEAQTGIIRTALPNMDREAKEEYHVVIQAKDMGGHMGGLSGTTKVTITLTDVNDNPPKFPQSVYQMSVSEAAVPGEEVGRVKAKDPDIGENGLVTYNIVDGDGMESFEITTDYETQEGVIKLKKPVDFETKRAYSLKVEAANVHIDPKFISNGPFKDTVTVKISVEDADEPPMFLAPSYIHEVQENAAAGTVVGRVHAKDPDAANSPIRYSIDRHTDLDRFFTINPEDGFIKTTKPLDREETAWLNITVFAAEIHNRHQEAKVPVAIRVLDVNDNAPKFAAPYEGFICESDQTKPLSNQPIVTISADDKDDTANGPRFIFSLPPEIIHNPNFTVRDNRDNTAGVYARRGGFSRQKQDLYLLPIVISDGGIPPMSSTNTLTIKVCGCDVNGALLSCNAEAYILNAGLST
In words: competition ELISA on coated recombinant human Cad-11 EC1 fusion protein; competitor biotinylated SYN0012 at 0.1 µg/ml, streptavidin-HRP, OD450. As for the experimental part:
The binding of the purified humanized composite variant antibodies (SDP011 to SDP151) to a recombinant Cad-11 EC1 human IgG1 fusion protein was assessed in a competition binding ELISA. A dilution series from 5 μg/ml to 0.0022 μg/ml of the humanized or control (SYN0012/H1M1) antibodies was premixed with a constant concentration of biotinylated murine anti-Cad-11 antibody, SYN0012/H1M1 (0.1 μg/ml, final concentration), before incubating for 1 hour at room temperature on a Nunc Immuno MaxiSorp 96 well flat bottom microtitre plate (Fisher Cat. No. DIS-971-030J) pre-coated with 0.25 μg/ml recombinant human Cad-11 EC1 (R&D Systems Cat. No. 1790-CA-050) diluted in PBS. The binding of the biotinylated mAb was detected with streptavidin-HRP (Sigma Cat. No. 55512) and tetramethylbenzidine (TMB) substrate (Invitrogen Cat. No. 00-2023).
In general terms: ELISA stands for enzyme-linked immunosorbent assay.

Test [2] has as its target T2, BSA coupled 37-mer Cad-11 peptide encompassing the Cad-11 immunogen (UniProt P55287 54-90, limits assumed, linked to BSA).
T2 construct: domain: 37-mer peptide encompassing the Cad-11 immunogen; also called Cad-11 antigen; Cad-11 peptide immunogen
T2 peptide (looked up): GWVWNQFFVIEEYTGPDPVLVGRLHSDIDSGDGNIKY
The experiment in a line: ELISA on BSA coupled 37-mer peptide, coat 50 ng/ml; Cad-11 antigen, coat 50 ng/ml.

The target in test [3] is T3, Cad-9 EC1 domain peptide (region overlapping G1-G33 of Cad-11 EC1) (UniProt Q9ULB4 54-86, conjugated to biotin).
T3 construct: domain: first 33 amino acids of the EC1 domain
T3 peptide (looked up): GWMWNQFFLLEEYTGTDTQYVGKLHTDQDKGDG
In words: ELISA on biotinylated EC1 domain peptide captured on a Neutravidin plate, goat anti-mouse IgG, TMB, A450. As for the experimental part:
(§1) The specificity of H1M1 and H14 anti-Cad-11 antibodies was tested further using an ELISA against the first 33 amino acids of the EC1 domains of Cad-11, Cad-7, Cad-8, Cad-20, Cad-24, Cad-9, Cad-18, and MN-Cad. Peptides corresponding to the region of Cad-7, Cad-8, Cad-20, Cad-24, Cad-9, Cad-18, MN-Cad that overlapped with the G1-G33 region of the Cad-11 EC1 domain were synthesized and conjugated to biotin. 100 μl of a 30 ng/ml solution of each of these peptides in PBS-Tween (0.05%) were incubated in each well of a 96-well Netravidin plate for 2-3 hrs at 4° C. and then washed twice with PBS-Tween (0.05%). Various concentrations of the anti-Cad-11 antibody were incubated in each well for 1 hr at 22° C. and then washed twice with PBS-Tween (0.05%). 100 μl of a 1/1000 dilution of a goat anti-mouse IgG secondary antibody were added to each well, incubated for 30 min at 22° C., and then washed twice with PBS-Tween (0.05%). 100 μl/well of room temperature TMB (3,3′,5,5′-tetramethylbenzidine) reagent was added to each well and color was allowed to develop for 5 min at 22° C.

The target in test [4] is T4, Cad-18 EC1 domain peptide (region overlapping G1-G33 of Cad-11 EC1) (UniProt Q13634 54-86, conjugated to biotin).
T4 construct: domain: first 33 amino acids of the EC1 domain
T4 peptide (looked up): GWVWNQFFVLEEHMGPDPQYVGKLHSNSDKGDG
The test is described as above. As for the experimental part:
as §1

The target in test [5] is T5, Cad-24 EC1 domain peptide (region overlapping G1-G33 of Cad-11 EC1) (UniProt Q86UP0 45-77, conjugated to biotin).
T5 construct: domain: first 33 amino acids of the EC1 domain
T5 peptide (looked up): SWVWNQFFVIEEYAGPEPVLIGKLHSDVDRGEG
The description is as above. As for the experimental part: as §1

For test [6], the target named is T6, Cad-20 EC1 domain peptide (region overlapping G1-G33 of Cad-11 EC1) (UniProt Q9HBT6 60-92, conjugated to biotin).
T6 construct: domain: first 33 amino acids of the EC1 domain
T6 peptide (looked up): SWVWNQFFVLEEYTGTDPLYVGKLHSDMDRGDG
The description is as above. As for the experimental part:
as §1

Test [7] has as its target T7, Cad-7 EC1 domain peptide (region overlapping G1-G33 of Cad-11 EC1) (UniProt Q9ULB5 48-80, conjugated to biotin).
T7 construct: domain: first 33 amino acids of the EC1 domain
T7 peptide (looked up): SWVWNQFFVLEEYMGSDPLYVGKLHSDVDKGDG
Described as above. As for the experimental part:
as §1

The target in test [8] is T8, Peptide 4 (first 33 amino acids, G1-G33, of the human Cad-11 EC1 domain) (human).
T8 construct: also called PEP4; Peptide 4 immunogen
T8 peptide: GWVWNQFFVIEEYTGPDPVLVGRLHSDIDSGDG
In words: ELISA on biotinylated EC1 peptides. As for the experimental part:
as §1

B1: humanized anti-Cad-11 EC1 antibody SDP051 (Vκ1/VH5) (antibody, IgG4, V domains shown)
VH: EVQLVQSGAEVKKPGASVKVSCKASGYSFTGYFMNWVRQAPGQGLEWIGRINPYTGDTFYNQKFKGRVTITVDKSTSTAYMELSSLRSEDTAVYYCGRLGSRYWYFDVWGQGTTVTVSS
VL: DVLMTQTPLSSPVTLGQPASISCRSSQSIIHSNGNTYLEWYLQKPGQSPQLLIYKVSNRFSGVPDRFTGSGSGTDFTLKISRVEAEDVGVYYCFQGSHVPWTFGQGTKLEIK
notes: humanized IgG4 (S241P), kappa
B1: the “IC50 (read off the curve)” value in test [1] is roughly 0.2 µg/mL. Further, it took 0.0068 µg/mL to reach a half-maximal effect in test [2] (EC50).

B2: murine H1M1 monoclonal anti-Cad-11 EC1 antibody (hybridoma H1M1, ATCC PTA-9699) (antibody, V domains shown)
VH: EVQLQQSGPELVKPGASVKISCKASGYSFTGYFMNWVKQSHGKSLEWIGRINPYTGDTFYNQKFKGKATLTVDKSSSTAHMELLSLSSEDSAVYYCGRLGSRYWYFDVWGAGTTVTVSS
VL: DVLMTQTPLSLPVSLGDQASISCRSSQSIIHSNGNTYLEWYLQKPGQSPKLLIYKVSNRFSGVPDRFTGSGSGTDFTLKISRVEAEDLGVYYCFQGSHVPWTFGGGTKLEIK
modifications: Biotinylated when used as the labelled competitor in Example 14; the letters are unchanged.
notes: murine antibody raised against Peptide 4; also called SYN0012; SYN0012/H1M1
As for B2, the binding result in test [3], in test [4], in test [5], in test [6] and in test [7] was “no binding” throughout. Moreover, the “IC50 (read off the curve)” value in test [1] is roughly 0.2 µg/mL. The “fold higher binding to Cad-11 than to any of the other cadherins tested” value in test [8] was greater than 100 fold.
